Experimental data as given in the RNAGym collection of RNA variant scans (doi:10.1073/pnas.2313332121).

B1: TPR t1 (parent)
chain: GACCAAUCUGCCCUCAGAGCUCGAGAACAUCUUCGGAUGCAGAGGAGGCAGGCUUCGGUGGCGCGAUAGCGCCAACGUCCUCAACCUCCAAUGCAUCCCACCACAUGAUGAUGCCUGAAGAGCCUUGGUUUUUUG

Variants of: B1
Experiment: polymerase ribozyme fitness, log enrichment relative to wild type (log ratio); higher = more active; in vitro selection for triplet polymerase activity
Procedure, shortened: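 Only genotypes with ≥10 input reads and ≥1 read per output were kept after Illumina sequencing of input and output libraries. These libraries were PCR-built, transcribed mutants of each subunit of a heterodimeric triplet polymerase ribozyme, each put through one triplicate in vitro selection round with frozen incubation at −7 °C, gel excision of extended constructs, streptavidin-bead capture and RT-PCR. Fitness is a logarithmic ratio of genotype enrichment to wild-type enrichment, from inverse-variance-weighted replicate averages, with the logarithm in base 2.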

| Variant | polymerase ribozyme fitness (log ratio) |
| --- | --- |
| C12G G19U C72U | -6.54 |
| C13A C34A G69A U96A C115A | -7.14 |
| C12G C40U A43U A83U A105C C124G | -5.47 |
| C12G C62U | 0.0184 |
| C13A A46U | -3.23 |
| C12U G23A U130C | -5.34 |
| C12A U32C G107A G120A | -3.32 |
| C12U U33G C62G A105U U112G U125A | -6.16 |
| C13A C62A G120U | -1.17 |
| C12G C73A A74G C89A A111G G127U | -5.44 |
| C12U G44U G110A | -2.1 |
| C12U G39C G52C C53A C79A A119U | -1.3 |
| C12G C123G | 1.55 |
| C12G C72G C104U C123U C124A | 2.06 |
| C13A U129A | -2.8 |
| C12U A50U C73U U125A | -0.873 |
| C12U C56A G63U C89U C124A | -4.63 |
| C12G C31U G61A | -5.13 |
| C13A A43C G44A C72U C76U U126A | -5.92 |
| C12G C40U C49U G65C C114G | -6.07 |
| C12G G57A G61U C80A | -2.05 |
| C13A U106A G110A | -2.53 |
| C12A U21C A83C | -0.123 |
| C12G G35A G48U G57U C80U | -4.47 |

| Variant | polymerase ribozyme fitness (log ratio) |
| --- | --- |
| C12G U14A U38G C76U C85G | -3.19 |
| C13A A119U | 0.145 |
| C12U A27G G42A A90G G93U A95G | -2.39 |
| C12G G45A U78C A84C U106G | -2.62 |
| C12U U21G C88U | -2.37 |
| C12U G63U U78A C79U | 0.0353 |
| C12U C94U U112C | 1.32 |
| C12G A29U C62G | -2.88 |
| C13A A50U C72A | -3.71 |
| C13A C62U C89A | -3.31 |
| C13A C40A C56U | -2.79 |
| C13A G23U G61C C88U C98G U112A G113A | -5.88 |
| C13A A16U C101G | -4.02 |
| C13A G23A A66G G69A U78C C85U A90U U96G C123U | -6.29 |
| C12U G51A G71C C79U C101A | -5.68 |
| C13A C28G C49A A75U A103G G107U U112C | -6.59 |
| C12U A43U | -1.51 |
| C13A G63A | -2.44 |
| C12G C20A C49A | -2.49 |
| C13A C70G C123A | -2.2 |
| C12G G36U C56U A121U G122U | 0.307 |
| C12G U14C U59G | -1.18 |
| C12U U21A C62G C104U | -2.05 |
| C12U G47A U55A G61U C86U | -0.0107 |

| Variant | polymerase ribozyme fitness (log ratio) |
| --- | --- |
| C12U A18C C34U G120C | -4.87 |
| C12U C13A A27G G93A | -5.78 |
| C12G G47C G52A C64U C123A | -3.61 |
| C12U A46C G52U | -0.969 |
| C12G G47C A66U A90C G120C U129A | -6.06 |
| C12U U112C | 1.26 |
| C12U A29G G71U G128A | -3.03 |
| C12U G71C | -0.564 |
| C12G A18U G39A G52A G60A C82U U106G G120A | -3.95 |
| C12G C98U A119G | 0.523 |
| C12U A121C | 2.05 |
| C12G G35A A74U | -4.41 |
| C12U G61U C88A | -0.482 |
| C12U G61U U109G G120U | -4.29 |
| C12G A27G C64U C104U | -2.48 |
| C13A G52A G128C | -4.3 |
| C12U C49A A50C A95C | -1.09 |
| C13A G120A | -0.19 |
| C12G G47A G48C A68G A103G A105C U106A G117U G120C | -7.36 |
| C12U G60C U109G | -4 |
| C12G C49G U54A | -0.423 |
| C13G A43G | -3.37 |
| C12U A27C C49A | -2.06 |
| C12G A37C A41U C79A | -3.13 |

| Variant | polymerase ribozyme fitness (log ratio) |
| --- | --- |
| C12A U32G C53A C89U C114A | -8.31 |
| C12G C28U C53A | -2.29 |
| C12G C28U A66C C72U A84C | -3.81 |
| C12A U116A C124A | -0.089 |
| C12G U30C A41U G48A | -5.05 |
| C12U G19C C56U U81G C104A G117C | -5.9 |
| C13A C72U | -1.96 |
| C12A U14G | -1.01 |
| C13A C123G | -0.0402 |
| C13A C123U | 0.793 |
| C12U A46C G47U C86A A108G | -1.87 |
| C12U C72A C80U | -0.362 |
| C12U A91U G135U | -2.33 |
| C12G U87A | -0.0361 |
| C13A U32C A100C | -2.75 |
| C12U G19A G45U | -2.71 |
| C12G U55A U87A | 0.0839 |
| C12G A29U C56U A118C C123G | -0.961 |
| C12U G57C | 0.562 |
| C13A A75U U125A | -2.12 |
| C12U G44C C82G A103G G117C | -6.32 |
| C13A A100U | -2.85 |
| C13G A26C C40U C79U C85U G120C | -6.15 |
| C12G A16U G48A C82A | -3.19 |

| Variant | polymerase ribozyme fitness (log ratio) |
| --- | --- |
| C12G C72U A100C | -1.28 |
| C12U G47A | -0.468 |
| C12U C70U C97A | -5.44 |
| C12G U55A C70U G113C | -3.9 |
| C12G C20G C56U C79U C82U A91U G107C G117A | -3.77 |
| C13A C76G | -2.51 |
| C12G U112A U133G | 1.61 |
| C12U C80G G128C U130C | -4.44 |
| C12U C89U A100C U133G | -1.42 |
| C13A C53A C115U A119U | 0.949 |
| C12U U38G G63U | -1.77 |
| C12G G69U U81G A90U G127U | -4.07 |
| C12U C56U G69U U112G A119U | -2.27 |
| C13A C20A | -3.84 |
| C12U C94A | -0.148 |
| C12U C94U | -0.204 |
| C12U C40U G69C A91U C101U A121C | -2.89 |
| C12U C22G G45A G71A C94U C99U | -4.76 |
| C12U C80U | -0.606 |
| C12U G36A A83C U106A U129C G135U | -1.4 |
| C12G C13A C56U C124A U132C | 0.686 |
| C12G C20U G36A G71A C80U C82A C88A G120U U126C | -5.21 |
| C13A G36A C72U A121C G127U | -0.199 |
| C12U A18C | -1.45 |

| Variant | polymerase ribozyme fitness (log ratio) |
| --- | --- |
| C12U C34A U132A | -1.35 |
| C12U A37U G63A C85U G93C G120A | -0.961 |
| C12U C73A C104A | -0.305 |
| C12G G61A C62G U87A G113U U125G | -7.34 |
| C13A G61U A91U | -2.53 |
| C13A U112A | -0.401 |
| C12U U38C G107A G117C C123A | -5.15 |
| C12U C15U G45U G69C C82A C101U | -2.95 |
| C13A A16G G61A C79G G113C | -5.27 |
| C12G G42U C49A G113C U132A | -2.5 |
| C13A G61A A66U A121U U129G | -0.637 |
| C12U C123U | 1.71 |
| C12U G63U C70A C82A C115A G128A | -1.07 |
| C12G C40A | -1.14 |
| C13A C15U G47C C114A U130C | -6.45 |
| C13A G57C C85G C123U | -1.45 |
| C13A A27C C70U | -5.92 |
| C12G G48C C49A U55C G61A A95G G110A | -2.17 |
| C12G C70A C82U A105U U106A U109G | -4.43 |
| C13A A27C U129A | -5.35 |
| C12U G61U A105U | -1.42 |
| C12G C53A G71U G107C U112C | -4.39 |
| C12G G36C A43C G63C | -4.59 |
| C12U A27G C88A C123G U126A | -1.75 |

| Variant | polymerase ribozyme fitness (log ratio) |
| --- | --- |
| C12U C49G C97A A111U | -5.43 |
| C12G C94U G110C G127C | -4.48 |
| C12U G47A C79U U87C | 0.112 |
| C12U G17U C28U G39A G42C C56U C70G U106A U109C U112C | -6.21 |
| C12U C31G A37G G45U A50C G51U C102A G117U | -7.15 |
| C13A G60C A84G | -2.96 |
| C12U C15U G17A C64U A83C C85A G117U | -2.73 |
| C13A A111U | -4.17 |
| C13A A111C | -1.39 |
| C12U G19U A43U C64G A95C G117U | -7.83 |
| C12U G45U G77C | -0.677 |
| C13A C20U C72U | -2.59 |
| C13A G17C | -4.33 |
| C12G G69U G93U C94G U96A C97U U109A | -5.02 |
| C12G C13A A50C A119U G127A | -1.75 |
| C12U C99A | -3.9 |
| C12A U81C | -1.73 |
| C12U A50G A74U U78C G93A | -1.93 |
| C12A U78C | -0.581 |
| C13G A41C C97A C115A G128A | -7.05 |
| C12U G48U | -0.505 |
| C13A G61C | -1.81 |
| C13A G51U | -5.64 |
